Test results: patent publication US12384850 (SYSTIMMUNE, dated 2025)

Columns and labels:
human PD-L1 = target: T1, human PD-L1 (human, UniProt Q9NZQ7 19-290); assay: FACS on human PD-L1 transfected CHO cells
T1 construct: whole, on cells; also called PDL1 expressing CHO cells; human PD-L1 transfected CHO cells
Experimental: (§1) Example 3: FACS Analysis of Tetra-Specific GNC Antibody Binding to Human PDL1 Transfected CHO Cells The tetra-specific GNC antibodies listed in TABLEs 3 and 4 were tested for binding to Chinese hamster ovary cells (CHO) cells stably expressing full length human ROR1. Antibodies were prepared at 2× final concentration and titrated 1:5 across 3 wells of a 96 well plate in 50 ul of PBS/2% FBS and then 5,000 ROR1-CHO cells in 50 ul PBS/2% FBS were added. This mixture was incubated for 30 minutes on ice, washed once with 200 ul PBS/2% FBS, and then the secondary antibody PE Goat anti-Human IgG Fc at 1:1000 dilution of stock was added, and this mixture was incubated for 30 minutes on ice. Cells were washed 2×200 ul PBS/2% FBS, resuspended in 50 ul PBS/2% FBS and analyzed on a BD LSRFORTESSA and the binding profile is shown in FIG. 6.

full-length human ROR1 = target: T2, full-length human ROR1 (human, UniProt Q01973 30-937); assay: FACS on CHO cells stably expressing full-length human ROR1
T2 construct: whole, on cells; also called human ROR1 transfected CHO cells; ROR1-CHO cells
Experimental: as §1, with “Example 1:” for “Example 3:”, “Tetra-Specific Specific” for “Tetra-Specific GNC”, “Human ROR1” for “Human PDL1”, “expressing a […]” for “expressing full length”, “FIG. 4.” for “FIG. 6.”

human 41BB = target: T3, human 41BB (human, UniProt Q07011 24-255); assay: FACS on human 41BB transfected CHO cells
T3 construct: whole, on cells; also called 41BB expressing CHO cells; human 41BB transfected CHO cells
Experimental: as §1, with “2:” for “3:”, “41BB” for “PDL1”, “a […]” for “full length”, “5. All of the tetra-specific GNC antibodies except for the control SI-27E12 contain a 41BB binding domain, 460C3, 420H5, or 466F6 and bound to 41BB expressing CHO cells with varying intensity.” for “6.”

T3 sequence (Q07011 24-255): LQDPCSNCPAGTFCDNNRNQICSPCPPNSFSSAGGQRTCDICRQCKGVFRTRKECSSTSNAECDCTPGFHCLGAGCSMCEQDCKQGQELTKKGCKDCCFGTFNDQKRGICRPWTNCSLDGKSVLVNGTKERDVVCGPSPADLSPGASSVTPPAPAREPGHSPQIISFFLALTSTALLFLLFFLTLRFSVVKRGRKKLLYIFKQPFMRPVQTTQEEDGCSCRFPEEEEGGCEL
T1 sequence (Q9NZQ7 19-290): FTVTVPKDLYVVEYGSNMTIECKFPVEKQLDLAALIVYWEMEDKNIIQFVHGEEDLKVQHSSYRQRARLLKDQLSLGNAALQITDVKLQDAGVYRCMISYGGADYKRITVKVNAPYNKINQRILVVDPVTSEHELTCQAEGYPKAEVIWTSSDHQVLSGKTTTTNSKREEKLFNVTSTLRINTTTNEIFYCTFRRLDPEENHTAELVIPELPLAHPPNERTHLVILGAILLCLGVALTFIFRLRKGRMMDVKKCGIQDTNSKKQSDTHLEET
T2 sequence (Q01973 30-937): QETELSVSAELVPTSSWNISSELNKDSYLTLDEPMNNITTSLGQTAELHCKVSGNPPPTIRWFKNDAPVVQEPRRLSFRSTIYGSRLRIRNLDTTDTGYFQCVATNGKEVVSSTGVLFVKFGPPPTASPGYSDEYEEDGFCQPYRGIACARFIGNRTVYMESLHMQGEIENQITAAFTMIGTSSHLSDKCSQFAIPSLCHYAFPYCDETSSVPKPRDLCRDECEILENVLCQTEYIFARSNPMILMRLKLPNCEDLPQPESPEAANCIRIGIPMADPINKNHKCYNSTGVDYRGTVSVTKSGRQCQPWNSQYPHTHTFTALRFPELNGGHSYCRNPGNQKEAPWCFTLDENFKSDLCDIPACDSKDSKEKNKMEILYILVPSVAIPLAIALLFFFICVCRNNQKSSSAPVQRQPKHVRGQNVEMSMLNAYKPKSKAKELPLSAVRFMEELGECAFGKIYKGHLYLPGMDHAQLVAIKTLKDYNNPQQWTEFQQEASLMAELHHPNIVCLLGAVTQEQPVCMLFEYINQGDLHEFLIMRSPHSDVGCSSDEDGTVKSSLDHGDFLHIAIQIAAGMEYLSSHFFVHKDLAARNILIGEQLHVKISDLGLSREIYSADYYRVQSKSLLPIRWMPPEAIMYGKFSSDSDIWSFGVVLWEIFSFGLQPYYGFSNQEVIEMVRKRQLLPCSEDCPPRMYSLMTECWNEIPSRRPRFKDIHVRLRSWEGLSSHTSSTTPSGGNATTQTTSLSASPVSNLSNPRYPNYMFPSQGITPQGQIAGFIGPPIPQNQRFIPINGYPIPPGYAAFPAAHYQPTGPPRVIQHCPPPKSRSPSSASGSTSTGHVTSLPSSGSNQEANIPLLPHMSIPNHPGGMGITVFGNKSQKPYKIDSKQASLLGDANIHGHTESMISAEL

B1: SI-35E18 (460C3-L1H1-scFv × PL230C6-Fab × 323H7-H4L1-scFv × 284A10-H1L1-scFv) (bispecific antibody, human IgG1, kappa)
heavy: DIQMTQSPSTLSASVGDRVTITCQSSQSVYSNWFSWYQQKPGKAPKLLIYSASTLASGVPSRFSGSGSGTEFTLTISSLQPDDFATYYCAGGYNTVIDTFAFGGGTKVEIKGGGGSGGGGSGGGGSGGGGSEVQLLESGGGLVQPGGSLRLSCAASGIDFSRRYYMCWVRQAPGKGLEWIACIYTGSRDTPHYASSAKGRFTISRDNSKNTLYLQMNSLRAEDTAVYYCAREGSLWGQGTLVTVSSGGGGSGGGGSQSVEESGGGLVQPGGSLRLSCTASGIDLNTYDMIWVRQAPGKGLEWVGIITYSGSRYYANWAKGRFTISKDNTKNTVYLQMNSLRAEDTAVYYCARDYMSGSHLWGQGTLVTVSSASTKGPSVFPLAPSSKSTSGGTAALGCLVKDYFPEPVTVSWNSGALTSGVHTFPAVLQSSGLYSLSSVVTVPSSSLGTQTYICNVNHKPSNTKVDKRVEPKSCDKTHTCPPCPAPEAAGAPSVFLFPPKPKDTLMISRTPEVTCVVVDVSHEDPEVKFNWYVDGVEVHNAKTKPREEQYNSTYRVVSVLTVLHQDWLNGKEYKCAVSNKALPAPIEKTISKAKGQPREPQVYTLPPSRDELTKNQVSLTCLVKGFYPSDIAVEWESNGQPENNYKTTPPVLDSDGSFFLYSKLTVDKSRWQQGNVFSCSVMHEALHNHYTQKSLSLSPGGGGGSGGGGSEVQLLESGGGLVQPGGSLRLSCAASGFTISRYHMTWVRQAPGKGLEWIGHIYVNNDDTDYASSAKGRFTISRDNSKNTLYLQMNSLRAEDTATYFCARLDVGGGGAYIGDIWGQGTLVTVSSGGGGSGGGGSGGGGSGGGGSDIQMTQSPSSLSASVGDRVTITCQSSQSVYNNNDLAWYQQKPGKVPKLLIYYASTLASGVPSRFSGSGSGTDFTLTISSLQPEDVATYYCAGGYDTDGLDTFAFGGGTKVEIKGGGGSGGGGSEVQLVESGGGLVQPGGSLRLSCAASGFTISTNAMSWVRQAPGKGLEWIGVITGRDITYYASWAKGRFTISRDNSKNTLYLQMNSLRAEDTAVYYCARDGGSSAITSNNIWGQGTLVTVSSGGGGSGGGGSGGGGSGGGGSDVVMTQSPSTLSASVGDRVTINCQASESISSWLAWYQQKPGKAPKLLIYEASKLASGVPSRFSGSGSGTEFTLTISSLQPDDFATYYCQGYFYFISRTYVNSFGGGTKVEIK
light: AYDMTQSPSSVSASVGDRVTIKCQASEDIYSFLAWYQQKPGKAPKLLIHSASSLASGVPSRFSGSGSGTDFTLTISSLQPEDFATYYCQQGYGKNNVDNAFGGGTKVEIKRTVAAPSVFIFPPSDEQLKSGTASVVCLLNNFYPREAKVQWKVDNALQSGNSQESVTEQDSKDSTYSLSSTLTLSKADYEKHKVYACEVTHQGLSSPVTKSFNRGEC
notes: Tetra-specific GNC antibody (41BB x PD-L1 x ROR1 x CD3), IgG1 null2 Fc
B1: binds (human PD-L1); binds (full-length human ROR1); binds (human 41BB).

B2: SI-27E15 (bispecific antibody, not shown: small tags and cut ends)
heavy (part 1 of 7): DIQMTQSPSTLSASVGDRVTITCQSSQSVYSNWFSWYQQKPGKAPKLLIYSASTLASGVPSRFSGSGSGTEFTLTISSLQPDDFATYYCAGGYNTVIDTFAFGGGTKVEIK
heavy (part 2 of 7): EVQLLESGGGLVQPGGSLRLSCAASGIDFSRRYYMCWVRQAPGKGLEWIACIYTGSRDTPHYASSAKGRFTISRDNSKNTLYLQMNSLRAEDTAVYYCAREGSLWGQGTLVTVSS
heavy (part 3 of 7): not shown
heavy (part 4 of 7): QSLVESGGGLVQPGGSLRLSCTASGFSLSRYYMTWVRQAPGKGLEWIGTIYTSGSTWYASWTKGRFTISKDNTKNTVDLQMNSLRAEDTAVYYCARSYYGGDKTGLGIWGQGTLVTVSS
heavy (part 5 of 7): DIQMTQSPSTLSASVGDRVTITCQASQSIDSWLSWYQQKPGKAPKLLIYQASTLASGVPSRFSGSGSGTEFTLTISSLQPDDFATYYCQSAYGVSGTSSYLYTFGGGTKVEIK
heavy (part 6 of 7): EVQLVESGGGLVQPGGSLRLSCAASGIDLSSNAMSWVRQAPGKGLEWIGVITGRDITYYASWAKGRFTISRDNSKNTLYLQMNSLRAEDTAVYYCARDGGSSAINSKNIWGQGTLVTVSS
heavy (part 7 of 7): DIQMTQSPSTLSASVGDRVTITCQASESISSWLAWYQQKPGKAPKLLIYEASKLASGVPSRFSGSGSGTEFTLTISSLQPDDFATYYCQGYFYFISRTYVNAFGGGTKVEIK
light: DVVMTQTPLSLPVSLGDQASISCRSSQSLVHSNGNTYLRWYLQKPGQSPKVLIYKVSNRFSGVPDRFSGSGSGTDFTLKISRVEAEDLGVYFCSQSTHVPWTFGGGTKLEIKRTVAAPSVFIFPPSDEQLKSGTASVVCLLNNFYPREAKVQWKVDNALQSGNSQESVTEQDSKDSTYSLSSTLTLSKADYEKHKVYACEVTHQGLSSPVTKSFNRGEC
notes: also called control SI-27E15
B2: binds (human 41BB).

B3: SI-27E13 (bispecific antibody, not shown: small tags and cut ends)
heavy (part 1 of 7): DIQMTQSPSTLSASVGDRVTITCQSSQSVYSNWFSWYQQKPGKAPKLLIYSASTLASGVPSRFSGSGSGTEFTLTISSLQPDDFATYYCAGGYNTVIDTFAFGGGTKVEIK
heavy (part 2 of 7): EVQLLESGGGLVQPGGSLRLSCAASGIDFSRRYYMCWVRQAPGKGLEWIACIYTGSRDTPHYASSAKGRFTISRDNSKNTLYLQMNSLRAEDTAVYYCAREGSLWGQGTLVTVSS
heavy (part 3 of 7): not shown
heavy (part 4 of 7): EVKLDETGGGLVQPGRPMKLSCVASGFTFSDYWMNWVRQSPEKGLEWVAQIRNKPYNYETYYSDSVKGRFTISRDDSKSSVYLQMNNLRVEDMGIYYCTGSYYGMDYWGQGTSVTVSS
heavy (part 5 of 7): DVVMTQTPLSLPVSLGDQASISCRSSQSLVHSNGNTYLRWYLQKPGQSPKVLIYKVSNRFSGVPDRFSGSGSGTDFTLKISRVEAEDLGVYFCSQSTHVPWTFGGGTKLEIK
heavy (part 6 of 7): EVQLVESGGGLVQPGGSLRLSCAASGIDLSSNAMSWVRQAPGKGLEWIGVITGRDITYYASWAKGRFTISRDNSKNTLYLQMNSLRAEDTAVYYCARDGGSSAINSKNIWGQGTLVTVSS
heavy (part 7 of 7): DIQMTQSPSTLSASVGDRVTITCQASESISSWLAWYQQKPGKAPKLLIYEASKLASGVPSRFSGSGSGTEFTLTISSLQPDDFATYYCQGYFYFISRTYVNAFGGGTKVEIK
light: AYDMTQSPSSVSASVGDRVTIKCQASEDIYSFLAWYQQKPGKAPKLLIHSASSLASGVPSRFSGSGSGTDFTLTISSLQPEDFATYYCQQGYGKNNVDNAFGGGTKVEIKRTVAAPSVFIFPPSDEQLKSGTASVVCLLNNFYPREAKVQWKVDNALQSGNSQESVTEQDSKDSTYSLSSTLTLSKADYEKHKVYACEVTHQGLSSPVTKSFNRGEC
notes: the listing has only VHv3/VLv2
B3: binds (human PD-L1); binds (human 41BB).

B4: SI-35E2 (bispecific antibody, not shown: small tags and cut ends)
heavy (part 1 of 7): DIQMTQSPSTLSASVGDRVTITCQSSQSVYSNWFSWYQQKPGKAPKLLIYSASTLASGVPSRFSGSGSGTEFTLTISSLQPDDFATYYCAGGYNTVIDTFAFGGGTKVEIK
heavy (part 2 of 7): EVQLLESGGGLVQPGGSLRLSCAASGIDFSRRYYMCWVRQAPGKGLEWIACIYTGSRDTPHYASSAKGRFTISRDNSKNTLYLQMNSLRAEDTAVYYCAREGSLWGQGTLVTVSS
heavy (part 3 of 7): not shown
heavy (part 4 of 7): QSLVESGGGLVQPGGSLRLSCTASGFSLSRYYMTWVRQAPGKGLEWIGTIYTSGSTWYASWTKGRFTISKDNTKNTVDLQMNSLRAEDTAVYYCARSYYGGDKTGLGIWGQGTLVTVSS
heavy (part 5 of 7): DIQMTQSPSTLSASVGDRVTITCQASQSIDSWLSWYQQKPGKAPKLLIYQASTLASGVPSRFSGSGSGTEFTLTISSLQPDDFATYYCQSAYGVSGTSSYLYTFGGGTKVEIK
heavy (part 6 of 7): EVKLDETGGGLVQPGRPMKLSCVASGFTFSDYWMNWVRQSPEKGLEWVAQIRNKPYNYETYYSDSVKGRFTISRDDSKSSVYLQMNNLRVEDMGIYYCTGSYYGMDYWGQGTSVTVSS
heavy (part 7 of 7): DVVMTQTPLSLPVSLGDQASISCRSSQSLVHSNGNTYLRWYLQKPGQSPKVLIYKVSNRFSGVPDRFSGSGSGTDFTLKISRVEAEDLGVYFCSQSTHVPWTFGGGTKLEIK
light: AYDMTQSPSSVSASVGDRVTIKCQASEDIYSFLAWYQQKPGKAPKLLIHSASSLASGVPSRFSGSGSGTDFTLTISSLQPEDFATYYCQQGYGKNNVDNAFGGGTKVEIKRTVAAPSVFIFPPSDEQLKSGTASVVCLLNNFYPREAKVQWKVDNALQSGNSQESVTEQDSKDSTYSLSSTLTLSKADYEKHKVYACEVTHQGLSSPVTKSFNRGEC
notes: as for B3
B4: binds (human PD-L1); binds (human 41BB).

B5: SI-27E12 (bispecific antibody, not shown: small tags and cut ends)
heavy (part 1 of 7): DVVMTQTPLSLPVSLGDQASISCRSSQSLVHSNGNTYLRWYLQKPGQSPKVLIYKVSNRFSGVPDRFSGSGSGTDFTLKISRVEAEDLGVYFCSQSTHVPWTFGGGTKLEIK
heavy (part 2 of 7): EVKLDETGGGLVQPGRPMKLSCVASGFTFSDYWMNWVRQSPEKGLEWVAQIRNKPYNYETYYSDSVKGRFTISRDDSKSSVYLQMNNLRVEDMGIYYCTGSYYGMDYWGQGTSVTVSS
heavy (part 3 of 7): not shown
heavy (part 4 of 7): QSLVESGGGLVQPGGSLRLSCTASGFSLSRYYMTWVRQAPGKGLEWIGTIYTSGSTWYASWTKGRFTISKDNTKNTVDLQMNSLRAEDTAVYYCARSYYGGDKTGLGIWGQGTLVTVSS
heavy (part 5 of 7): DIQMTQSPSTLSASVGDRVTITCQASQSIDSWLSWYQQKPGKAPKLLIYQASTLASGVPSRFSGSGSGTEFTLTISSLQPDDFATYYCQSAYGVSGTSSYLYTFGGGTKVEIK
heavy (part 6 of 7): EVQLVESGGGLVQPGGSLRLSCAASGIDLSSNAMSWVRQAPGKGLEWIGVITGRDITYYASWAKGRFTISRDNSKNTLYLQMNSLRAEDTAVYYCARDGGSSAINSKNIWGQGTLVTVSS
heavy (part 7 of 7): DIQMTQSPSTLSASVGDRVTITCQASESISSWLAWYQQKPGKAPKLLIYEASKLASGVPSRFSGSGSGTEFTLTISSLQPDDFATYYCQGYFYFISRTYVNAFGGGTKVEIK
light: AYDMTQSPSSVSASVGDRVTIKCQASEDIYSFLAWYQQKPGKAPKLLIHSASSLASGVPSRFSGSGSGTDFTLTISSLQPEDFATYYCQQGYGKNNVDNAFGGGTKVEIKRTVAAPSVFIFPPSDEQLKSGTASVVCLLNNFYPREAKVQWKVDNALQSGNSQESVTEQDSKDSTYSLSSTLTLSKADYEKHKVYACEVTHQGLSSPVTKSFNRGEC
notes: the listing has only VHv3/VLv2; also called control SI-27E12
B5: binds (human PD-L1).
